In the nanobody polyreactivity screen of Harvey et al. (2022):

Assay: yeast display, Sf9 membrane polyspecificity reagent, FACS + sequencing; frameworks hold sequencing errors
In short: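 Synthetic nanobody libraries on Saccharomyces cerevisiae BJ5465 were galactose-induced for 36–48 hours, stained 1 hour at 4 °C with 10% biotinylated, detergent-solubilized Sf9 membrane reagent and enriched on streptavidin microbeads. FACS then separated cells into low and high (top ~1%) gates by anti-HA (expression) and streptavidin (reagent binding) fluorescence. Genes were colony-PCR amplified, MiSeq 2 × 250 sequenced and CDR-length filtered. A clone's polyreactivity label is that of its gate of origin.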

| Sequence | polyreactivity (PSR sort gate) |
| --- | --- |
| QVQLVESGGGLVQAGGSLRLSCAASGRTFGYYAMGWYRQAPGKERELVAAISWRGTSTYYADSVKGRFTISRDNAKNTVYLQMNSLKPEDTAVYYCAVGRTVAHRFIAGDYWGQGTQVTVSS | high polyreactivity |
| QVQLVESGGGLVQAGGSLRLSCAASGLTFGAYAMGWYRQAPGKEREFVAAITYSGGSTNYADSVKGRFTISRDNAKNTVYLQMNSLKPEDTAVYSCNAGYYSPWAFYPYDYWGQGTQVTVSS | high polyreactivity |
| QVQLVESGRGLVQAGVSLRLSCADSGSTFDYNAMGCYRQATGKERELVPVNRSGGTTYYADSVKGRFTISRDNANNTVYLQMNSLKPEDTAVYYCAAAFQRRAGSYGGSRRYGYWGQVTQVTVSS | high polyreactivity |
| QVQLVESGGGLVQAGGSLRLSCAASGSTFAVYAMGWYRQAPGKERELVASITDGGASTYYADSVKGRFTISRDNAKNTVYLQMNSLKPEDTAVYYCAADTYPTTSEVDYWGQGTQVTVSS | low polyreactivity |
| QVQLVESGGGLVQAGGSLRLSCAASGRIFPTYAMGWYRQAPGKERELVAGITSGGRTNYADSVKGRFTISRDNAKNTVYLQMNSLKPEDTAVYYCATVSQQSRSLGIDRIYYWGQGTQVTVSS | high polyreactivity |
| QVQLVESGGGLVQAGGSLRLSCAASGFMFSSYAMGWYRQAPGKERELVAAISWSDSSTYYADSVKGRFTISRDNAKNTVYLQMNSLKPEDTADYYCAAVIGPDVYYLLYDYWGQGTQVTVSS | low polyreactivity |
| QVQLVESGGGLVQAGGSLRLSCAASGNIFGVNAMGWYRQAPGKERELVAAITCSDSSTNYADSVKGRFTISRDNAKNTVYLQMNSLKPEDTAVYYCATRVWRSAQSRWYGYDYWGQGTQVTVSS | high polyreactivity |
| QVQLVESGGGLVQAGGSLRLSCAASGITFVRNAMGWYRQAPGKEREFVAAISGSGVSTYADSVKGRFTISRDNAKNTVYLQMNSLKPEDTAVYYCARDFPWSYAWYDYWGQGTQVTVSS | low polyreactivity |
| QVQLVESGGGLVQEGGSLRLSCAASGRTIIQNGMGWYRQAPGKERELVAAISYRGGTTSYADSVKGRFTISRDNAKNTVYLQMNSLKPEDTAVYSCAAVGHTIYATPTYYYWGQGTQVTVSS | high polyreactivity |
| QVQLVESGGGLVQAGGSLRLSCAASGRIFYGYTMGWYRQAPGKERELVAAITQRGGNTHYADSVKGRFTISRDNAKNTVYLQMNSLKPEDTAVYYCAAKYYPYVRRVQYYYWGQGTQVTVSS | high polyreactivity |
| QVQLVESGGGLVQAGGSLRLSSASSGSTFWIYAMGWYRQAPGKEREMVASIRRACNTYADSVKGRFTISRDNAKNTVYLQMNSLKPEDTAVYYCNARLYLPYGYRRSNGYESDYWGQGTQVTVSS | high polyreactivity |
| QVQLVESGGGLVQAGGSLRLSCAASGITFPYYAMGWDRQAPGKERELVAAISSSGGSTYYADSVKGRFTISRDNAKNTVYLQMNSLKPEDTAVYYCAAQRYINYDYWGQGTQVTVSS | high polyreactivity |
| QVQLVESGGGLVQAGGSLRLSCAASAFTFKYNVMGWYRQAPGTERELLAAISKRGGNTYYADSVKGRFTISRDNAKNTVYLQMNSLKPEDTAVYYCAADPTSPETSGQGYDYWGQGTQVTVSS | high polyreactivity |
| QVQLVESGGGLVQAGGSLRLSCAASGSTFSRYTMGWYRQAPGKERELVAVITRRGGSTYYADSVKGRFTISRDNAKNTVYLQMNSLKPADTAVYYCAADYKYPIDYGYWGQGTQVTVSS | high polyreactivity |
| QVQLVESVGGLLQAGGSLRLSCADSGSTFTTNVMGWYRQAPGKERELVAAISKRGGSTFYADSVKGRFTISRDNAKNTVYRQMNSLKPEDTAVYYCKALRRGVRDPYGYWGQGTQVTVSS | high polyreactivity |
| QVQLVESGGGLVQAGGSLRLSCAASGRTFPYYTMGWYREAPGKERELVAAIDGSGDNTYYADSVKGRFTISRDNAKNTLYLHMNSLKPEHTAVYYCTADTGLGTRDFEKRDYWGQGTQVTVSS | low polyreactivity |
| HVQLVESGGGLVQAGGSLRLTCAASGLTFSSYAMGWYRQAPGKERELVADITYRGGSTYYADSVKGRFTISRDNEKNTVYLQMNSLKPEDTAVYYCAARKKYRFDYWGQGTQVTVSS | high polyreactivity |
